Laboratory results as given in patent US20230227514A1, “BETA-ARRESTIN COMPOSITIONS AND ASSOCIATED METHODS” (Duke University, priority 2020, published 2023).

Tests used:
Format in all cases: cell-based
RanGAP1 [1] = molecular target: T1, RanGAP1 (Homo sapiens, UniProt P46060); experiment: Confocal colocalization with endogenous RanGAP1 at the nuclear envelope; settings: HEK-293 cells with or without β2AR agonist stimulation
T1 construct: endogenous in cells; host or cells: HEK-293T / HEK-293
Procedure: (§1) Immunostaining and confocal microscopy. […] Twenty-four hours post-transfection, cells were serum-starved for 4 h, and either left untreated or treated with respective agonists for the indicated times in the Figure descriptions. After stimulation, cells were fixed with 5% formaldehyde diluted in phosphate-buffered saline (PBS), permeabilized with 0.1% Triton in PBS containing 2% bovine serum albumin for 20 min and incubated at room temperature with appropriate primary antibody. The next day, cells were washed three times with PBS and incubated with Alexa594 conjugated secondary antibody for 1 h, followed by repeated washes using PBS. Confocal images were acquired using Zeiss LSM510 laser-scanning microscope using multitrack sequential with excitation (488 and 568 nm) and emission (BP 505-550 nm and LP 585 nm) filter sets. Images (1024×1024 pixels) were collected using either a 63× or 100× oil immersion lens. Images were processed for Figure presentation using Adobe Photoshop software, and any increase or decrease of brightness/contrast was applied to the entire image. The nuclear rim localization of YFP-βarrestin2-SUMO1 is readily visualized in cells with low to moderate expression of YFP-protein. In cells with high expression, this localization is present, and can be discerned by enlarging sections of the nuclear rim. […]

RanGAP1 [2] = experiment: Western blotting of RanGAP1 levels on βarrestin2 overexpression; settings: RanGAP1/GAPDH ratio, Western blot
Excerpt: HEK-293T cells stably transfected with β2AR were transfected with vector or YFP-βarrestin2. […] The unmodified RanGAP1 band (70 kDa) was divided by cognate GAPDH and plotted as a ratio. The bar graph (bottom panel) summarizes values from three independent experiments. *p=0.006, unpaired t test.
In these experiments, SUMO1 by itself is not localized at the nuclear membrane in HEK-293 cells; only βarrestin2-SUMO1 is localized at the nuclear membrane. […] It is well established that RanGAP1 is expressed in cells predominantly in the SUMOylated state. This is illustrated in immunoblots (FIGS. 9-11), in which the RanGAP1 antibody detects two bands, SUMO-RanGAP1 (approximately 90 kDa) and RanGAP1 (approximately 70 kDa).

[3] = molecular target: T2, D1 dopamine receptor (D1R) (Homo sapiens, UniProt P21728); experiment: Confocal trafficking and colocalization with D1R; settings: HEK-293 cells with stable D1R expression; dopamine 15 minutes
T2 construct: expressed in transfected cells
Procedure: as §1

β2AR [4] = molecular target: T3, β2AR (Homo sapiens, UniProt P07550); experiment: Confocal trafficking and colocalization with β2AR
T3 construct: Flag (N); expressed in transfected cells
Procedure: Immunostaining and confocal microscopy. […] Twenty-four hours post-transfection, cells were serum-starved for 4 h, and either left untreated or treated with respective agonists for the indicated times in the Figure descriptions. After stimulation, cells were fixed with 5% formaldehyde diluted in phosphate-buffered saline (PBS), permeabilized with 0.1% Triton in PBS containing 2% bovine serum albumin for 20 min and incubated at room temperature with appropriate primary antibody. The next day, cells were washed three times with PBS and incubated with Alexa594 conjugated secondary antibody for 1 h, followed by repeated washes using PBS. Confocal images were acquired using Zeiss LSM510 laser-scanning microscope using multitrack sequential with excitation (488 and 568 nm) and emission (BP 505-550 nm and LP 585 nm) filter sets. Images (1024×1024 pixels) were collected using either a 63× or 100× oil immersion lens. Images were processed for Figure presentation using Adobe Photoshop software, and any increase or decrease of brightness/contrast was applied to the entire image. The nuclear rim localization of YFP-βarrestin2-SUMO1 is readily visualized in cells with low to moderate expression of YFP-protein. In cells with high expression, this localization is present, and can be discerned by enlarging sections of the nuclear rim.
For βarrestin2-SUMO1, plasma membrane translocation was detected upon β2AR agonist activation, and, intriguingly, βarrestin2-SUMO1 was detected in endocytic vesicles. […] Confocal images were taken of cells stably expressing the β2AR and transiently expressing YFP-SUMO1 (data not shown). In both quiescent and agonist-treated cells, the SUMO1 protein remained in the nucleus. […] See Shenoy et al. 2007, supra; Shenoy and Lefkowitz. 2005. J Biol Chem 280:15315-15324; and Shenoy and Lefkowitz. 2003. J Biol Chem 278:14498-14506. Therefore, the endosomal trafficking was compared for βarrestin2-ubiquitin (βarrestin2-Ub) fusion protein and internalized β2ARs. […]

D2R = molecular target: T4, D2R (Homo sapiens, UniProt P14416); experiment: Confocal trafficking and colocalization with D2R; settings: HEK-293 cells stably expressing D2R
T4 construct: HA (N); expressed in transfected cells
Procedure: as §1

β2AR [5] = molecular target: T3, β2AR; experiment: BRET assay of βarrestin1 construct recruitment to β2AR; settings: with or without isoproterenol stimulation
Excerpt: The bar graph summarizes the BRET ratio corresponding to the recruitment of βarrestin1 or βarrestin1-SUMO1 fusion protein to the β2AR with or without isoproterenol (β2AR agonist) stimulation, as described in Example 1 herein.
(§2) BRET assays. […] Titration assays were first completed, which allowed determination of the specificity of association among different interaction partners. See Nagi and Shenoy. 2019, supra; Gales et al. 2005. Nature methods 2:177-184; Nagi et al. 2015. Cellular and molecular life sciences: CMLS 72:3543-3557; Audet and Pineyro. 2011. Methods in molecular biology 756:149-163; and Rebois et al. 2006. Journal of cell science 119:2807-2818. […] BRET readings were acquired using Synergy Neo2 plate reader and obtained 5 min after manual addition of Rluc substrate, coelenterazine h (Promega) to a final concentration of 5 μM.
(§3) The BRET signal generated was determined by calculating the ratio of light emitted by YFP (520-550 nm) over the light emitted by Rluc (440-480 nm). These values were then corrected by subtracting the background signal (detected when the Rluc-tagged construct was expressed without acceptor) from the BRET signal detected in cells co-expressing both donor and acceptor constructs. Agonist-induced BRET values were calculated by subtracting net BRET values of non-stimulated conditions from net BRET values corresponding to the stimulated conditions.

glucagon receptor (GCGR) = molecular target: T5, glucagon receptor (GCGR) (Homo sapiens, UniProt P47871); experiment: BRET assay of βarrestin1 construct recruitment to GCGR; settings: GCGR activation with glucagon
T5 construct: expressed in transfected cells; host or cells: HEK-293T
Excerpt: The bar graph summarizes the BRET ratio corresponding to the recruitment of βarrestin1 or βarrestin1-SUMO1 fusion protein to the GCGR with or without glucagon (GCGR agonist) stimulation, as described in Example 1 herein.
as §2, §3

SUMO1 = molecular target: T6, SUMO1 (Homo sapiens, UniProt P63165); experiment: SUMOylation of FLAG-βarrestin2 constructs co-expressed with His6-SUMO1 (FLAG IP, immunoblot); settings: overexpressed in HEK-293 cells along with His-SUMO1
T6 construct: His6 (N); expressed in transfected cells; host or cells: HEK-293 (transient)
Excerpt: HEK-293 cells were transfected with vector, FLAG-βarrestin2 (WT) or FLAG-βarrestin2-K296R along with His6-SUMO1.
SUMOylation is targeted to a canonical protein sequence (Ψ-K-X-D/E), where Ψ is an aliphatic amino acid, K is the target site for the covalent modification by SUMO, X is any amino acid and is followed by an acidic residue. See Sampson et al. 2001. J Biol Chem 276:21664-21669. […] See Wyatt et al. 2011 and Xiao et al. 2015, both supra.

T5 sequence (P47871 26-477, species assumed): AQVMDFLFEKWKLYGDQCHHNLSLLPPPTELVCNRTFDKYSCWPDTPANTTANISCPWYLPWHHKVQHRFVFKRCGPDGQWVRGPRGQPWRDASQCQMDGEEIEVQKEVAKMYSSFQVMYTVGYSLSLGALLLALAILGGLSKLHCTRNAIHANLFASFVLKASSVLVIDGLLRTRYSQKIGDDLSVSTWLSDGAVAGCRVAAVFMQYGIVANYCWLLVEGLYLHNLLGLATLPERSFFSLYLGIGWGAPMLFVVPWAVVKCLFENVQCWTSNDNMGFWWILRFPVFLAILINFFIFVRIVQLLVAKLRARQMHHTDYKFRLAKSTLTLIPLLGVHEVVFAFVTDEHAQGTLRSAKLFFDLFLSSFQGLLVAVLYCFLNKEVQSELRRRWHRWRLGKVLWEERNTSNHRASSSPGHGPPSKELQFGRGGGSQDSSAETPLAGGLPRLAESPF
T2 sequence (P21728 whole entry): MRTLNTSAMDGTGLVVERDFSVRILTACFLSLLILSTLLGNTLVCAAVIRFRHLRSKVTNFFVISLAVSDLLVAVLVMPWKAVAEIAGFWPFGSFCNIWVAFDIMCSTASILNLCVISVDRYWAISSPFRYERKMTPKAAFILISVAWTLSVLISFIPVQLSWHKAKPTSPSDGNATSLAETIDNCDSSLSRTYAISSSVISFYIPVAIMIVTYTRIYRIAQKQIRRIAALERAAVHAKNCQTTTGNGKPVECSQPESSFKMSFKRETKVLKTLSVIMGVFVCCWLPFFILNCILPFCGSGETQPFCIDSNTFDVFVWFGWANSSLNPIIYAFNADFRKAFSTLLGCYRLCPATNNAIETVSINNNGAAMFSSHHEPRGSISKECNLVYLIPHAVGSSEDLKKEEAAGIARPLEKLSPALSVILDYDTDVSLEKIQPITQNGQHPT
T1 sequence (P46060 2-587 limits assumed): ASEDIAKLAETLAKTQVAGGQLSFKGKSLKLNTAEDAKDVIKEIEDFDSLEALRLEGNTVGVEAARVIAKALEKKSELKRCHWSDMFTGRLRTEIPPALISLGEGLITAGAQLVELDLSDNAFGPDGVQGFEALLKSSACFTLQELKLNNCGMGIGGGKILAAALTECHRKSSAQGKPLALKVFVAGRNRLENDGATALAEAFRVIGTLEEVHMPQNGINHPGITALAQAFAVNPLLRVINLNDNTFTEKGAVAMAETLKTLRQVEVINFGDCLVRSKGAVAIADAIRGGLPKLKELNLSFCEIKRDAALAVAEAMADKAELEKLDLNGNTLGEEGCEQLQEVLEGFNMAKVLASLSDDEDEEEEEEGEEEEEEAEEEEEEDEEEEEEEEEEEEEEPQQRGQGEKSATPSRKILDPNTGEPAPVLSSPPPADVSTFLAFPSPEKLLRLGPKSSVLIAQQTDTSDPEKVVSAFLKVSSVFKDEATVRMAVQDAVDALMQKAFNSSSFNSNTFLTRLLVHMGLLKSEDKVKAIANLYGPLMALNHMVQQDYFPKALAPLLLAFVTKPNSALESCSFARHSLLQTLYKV
T1 sequence (P63165 2-97 partner limits assumed): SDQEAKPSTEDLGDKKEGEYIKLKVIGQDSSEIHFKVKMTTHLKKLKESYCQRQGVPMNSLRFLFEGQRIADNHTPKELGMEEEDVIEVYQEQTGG
T6 sequence (P63165 1-97 limits assumed): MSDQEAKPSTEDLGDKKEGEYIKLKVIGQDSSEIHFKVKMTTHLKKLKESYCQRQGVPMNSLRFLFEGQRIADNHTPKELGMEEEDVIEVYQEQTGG
T4 sequence (P14416 whole entry): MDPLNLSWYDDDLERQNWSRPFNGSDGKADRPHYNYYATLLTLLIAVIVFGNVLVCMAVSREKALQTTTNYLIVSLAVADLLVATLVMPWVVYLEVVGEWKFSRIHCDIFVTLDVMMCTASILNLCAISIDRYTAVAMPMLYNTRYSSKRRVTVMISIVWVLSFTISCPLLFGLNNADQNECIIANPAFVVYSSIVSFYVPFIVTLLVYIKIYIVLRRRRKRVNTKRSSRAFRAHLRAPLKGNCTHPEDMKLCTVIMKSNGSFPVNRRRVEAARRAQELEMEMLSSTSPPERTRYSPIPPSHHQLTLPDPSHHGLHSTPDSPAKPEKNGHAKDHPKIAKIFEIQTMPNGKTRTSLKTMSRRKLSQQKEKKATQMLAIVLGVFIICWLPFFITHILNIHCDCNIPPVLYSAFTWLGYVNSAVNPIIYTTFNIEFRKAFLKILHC

Molecule: βarrestin2: wild-type rat βarrestin2 (SEQ ID NO:3), tagged, used as comparator [reference compound]
- colocalization with endogenous RanGAP1 at the nuclear envelope (RanGAP1 [1]): Minimal colocalization
- increase of unmodified RanGAP1 band (approximately 70 kDa) versus vector transfected cells (RanGAP1 [2]): 50%
- association with D1R after dopamine activation (confocal) [3]: weak association
- colocalization / complexes with β2AR after agonist activation (confocal) (β2AR [4]; HEK-293 cells with stable β2AR expression, agonist up to 20 minutes): no colocalization was detected
- stability of association with activated D2R (confocal) (D2R): not stable

Molecule: βarrestin1-SUMO1: rat βarrestin1 polypeptide fused to human SUMO1 (SEQ ID NO:2)
- association with β2AR by BRET ratio (β2AR [5]): significantly more binding
- association with GCGR by BRET (glucagon receptor (GCGR)): significantly more binding
- colocalization of βarrestin1 constructs with β2AR (confocal) (β2AR [4]; HEK-293 cells, isoproterenol): strong colocalization

Molecule: βarrestin1: wild-type rat βarrestin1 (SEQ ID NO:4), used as comparator [reference compound]
- association with β2AR by BRET ratio (β2AR [5]): weak association
- association with GCGR by BRET (glucagon receptor (GCGR)): weak association

B1: βarrestin2-K296R: rat βarrestin2 with lysine-296 of the canonical SUMOylation site mutated to arginine (protein)
chain: MGEKPGTRVFKKSSPNCKLTVYLGKRDFVDHLDKVDPVDGVVLVDPDYLKDRKVFVTLTCAFRYGREDLDVLGLSFRKDLFIATYQAFPPMPNPPRPPTRLQDRLLKKLGQHAHPFFFTIPQNLPCSVTLQPGPEDTGKACGVDFEIRAFCAKSIEEKSHKRNSVRLIIRKVQFAPETPGPQPSAETTRHFLMSDRRSLHLEASLDKELYYHGEPLNVNVHVTNNSAKTVKKIRVSVRQYADICLFSTAQYKCPVAQLEQDDQVSPSSTFCKVYTITPLLSDNREKRGLALDGQLRHEDTNLASSTIVKEGANKEVLGILVSYRVKVKLVVSRGGDVSVELPFVLMHPKPHDHITLPRPQSAPREIDIPVDTNLIEFDTNYATDDDIVFEDFARLRLKGMKDDDCDDQFC
modifications: left off: large carriers
- SUMOylation compared with rat βarrestin2 (WT) (SUMO1): significantly decreased but not eliminated
